Experimental data taken from PMC9820559, “Investigation of the Fuzzy Complex between RSV Nucleoprotein and Phosphoprotein to Optimize an Inhibition Assay by Fluorescence Polarization” (International Journal of Molecular Sciences, 2022).
Ends that are not written are not given here. Peptide text beside a SMILES is read from it. * marks the point of attachment. dicyano BODIPY FL = CC1=CC(C)=[N+]2C1=Cc1ccc(CCC(=O)*)n1[B-]2(C#N)C#N; FITC = O=C1OC2(c3ccc(O)cc3Oc3cc(O)ccc32)c2ccc(NC(=S)*)cc21; X1 = Cc1cc(C)n2c1C=C1C=CC(CCC(=O)*)=[N+]1[B-]2(C#N)C#N

Tests used:
RSV N-RNA complex [1] = biological target: T1, RSV N-RNA complex (Human respiratory syncytial virus A, UniProt P03418); experiment: biochemical; assay type: binding
T1 construct: Full-length N was produced by co-expression with the C-terminal domain of RSV P protein in E. coli BL21(DE3); made in house; host or cells: E. coli BL21(DE3), co-transformed with pET-N and pGEX-P(161–241)
Method: We carried out FP measurements using the fluorescent F11 peptide and N-RNA complex. […] No salt was added to promote high affinity.
We first measured binding of Fn peptides (200 nM) to N-RNA in Tris buffer by FP (Figure 5A,B). […] We fitted the data with ΔFPmax and Kd as parameters.
We therefore measured fluorescein FP in the presence of N-RNA. […] To test if fluorescein binds to the P-binding site on the N-RNA, we carried out a competition experiment with M76 (Figure 6C).
We first performed FP measurements in salt-free Tris pH 8 buffer (Figure 8A). We measured binding curves using 200 nM of fluorescent peptides.
(§1) Fluorescence polarization measurements were carried out on a Paradigm Detection Platform (Beckman Coulter, Brea, CA, USA) operating with a microplate reader, a fluorescein detection cartridge (excitation range 485/20 nm, emission range 535/25 nm for both parallel and perpendicular components) and the SpectraMax Pro 6.1 software (Molecular Devices, San Jose, CA, USA). Samples were placed in polystyrene black flat bottom 96-well microplates (Cellstar, Greiner bio-one, Frickenhausen, Germany) with 20 µL final volume in each well. If not stated otherwise, the final concentration of fluorescent ligands was 200 nM. The buffer was either 20 mM MES pH 6.5, salt-free or with 250 mM NaCl, or 20 mM Tris pH 8.0 salt-free or with 100 mM NaCl, supplemented with 0.01% Brij-35. Mixing was done using the corresponding plate reader option. The temperature was set to 20 °C. Data were recorded in top reading mode. Measurements were done in triplicate and after an incubation time of 30 min, if not indicated otherwise. Fluorescence polarization (FP) in mFP units was determined from the parallel (I∥) and perpendicular (I⊥) components of the emitted light according to Equation (4). A grating factor G of 1.2 was determined using 1 nM fluorescein in 1 mM NaOH and assuming a theoretical FP of 27 mFP [48]. Background signal was measured from wells containing only buffer, and the mean value was subtracted from each I∥ and I⊥ component. (4) FP (mP)=1000×(I∥−G∗I⊥)/(I∥+G×I⊥)
We assumed that the measured fluorescence polarization FP is a linear combination of the FP of the fluorescent probe in the absence of N protein (FPmin) and the FP of N-bound fluorescent probe (FPmax), weighted by the molar fraction. The molar fraction x = [P]bound/[P]0 can then be expressed as a ratio of FP differences (Equation (8)). (8) x=(FP−FPmin)/(FPmax−FPmin)=∆FP/∆FPmax
To determine the Kd value of a complex between a fluorescent probe and N protein, a series of samples with constant probe concentration and varying N concentration was measured. FP binding curves were fitted with a single binding site model and a 1:1 stoichiometry.

RSV N-RNA complex [2] = biological target: T1, RSV N-RNA complex; experiment: Fluorescence polarization inhibition of N-RNA binding to fluorescent probes; details: probe BCN8E 200 nM
Excerpt: We next performed inhibition experiments for the F11-(N-RNA) complex by M76 (Figure 4B). FP values decreased with increasing competitor concentration. At saturation, FP nearly reached the value of free F11, showing that the F11 peptide could be nearly completely displaced. Since the same concentration range was used for NNTD and N-RNA, poor solubility of M76 can be ruled out to explain the saturation observed before complete displacement of F11 in the presence NNTD (Figure 3C). This reinforces the hypothesis of a second binding site on NNTD, outside the canonical P-binding site. […]
To probe the potency of M76 as an inhibitor, we carried out competition experiments with the M76 molecule and several BCNn peptides. M76 was able to displace the fluorescent probes from N-RNA, and inhibition curves were obtained (Figure 8E). Since we used different N concentrations to have similar dynamic ranges of FP for the series of fluorescent peptides, we cannot directly compare M76 IC50s. However, Kis may be compared.
as §1
To assess inhibition of a complex between a fluorescent probe and N protein by peptides or the M76 molecule, the concentration of N was set to work with an FP range comprised between FPmin and ~80% FPmax. Peptides were added from 1 or 2 mM stock solution in water at neutral pH. M76 was added from 10 or 20 mM stock solutions in ethanol or in DMSO. […] Inhibition data were fitted with Origin 7, and in parallel with the Excel solver module. All data were compatible with an absence of cooperativity. FPmax and FPmin were fitted, and the maximal inhibition %i,max was set to 100%. (11) %i=100×[1−(FP−FPmin)/(FPmax−FPmin)] (12) %i=%i,max×[inhibitor]/[inhibitor]+IC50
Inhibition constants Ki were calculated on the IC50-to-Ki converter for a protein-ligand-inhibitor system (https://bioinfo-abcc.ncifcrf.gov/IC50_Ki_Converter/index.php, accessed on 24 August 2022), assuming a competitive mechanism (Equation (13)). This tool takes into account the free concentrations of protein and ligand. (13) Ki=(IC50−[protein]/2)/([peptide]/Kd+1)

[3] = biological target: T2, RSV N-RNA complex (full-length N protein in ring-shaped complexes with bacterial RNA) (human respiratory syncytial virus, UniProt P03418 1-391); experiment: fluorescence polarisation; competition: unlabeled P_(10EE) varied against 200 nM BCN_(10EE) on 1 µM N-RNA; Tris pH 8 buffer; Hill equation; Ki from the IC50-to-Ki server; details: both partners purified
T2 construct: human RSV nucleoprotein N, full length; concentrations are of N protomer; also called N-RNA rings; source: in lysate for the co-purification; purified (glutathione-Sepharose, thrombin, Superdex 200) as N-RNA complex; copies: 10-11
T2 sequence (looked up): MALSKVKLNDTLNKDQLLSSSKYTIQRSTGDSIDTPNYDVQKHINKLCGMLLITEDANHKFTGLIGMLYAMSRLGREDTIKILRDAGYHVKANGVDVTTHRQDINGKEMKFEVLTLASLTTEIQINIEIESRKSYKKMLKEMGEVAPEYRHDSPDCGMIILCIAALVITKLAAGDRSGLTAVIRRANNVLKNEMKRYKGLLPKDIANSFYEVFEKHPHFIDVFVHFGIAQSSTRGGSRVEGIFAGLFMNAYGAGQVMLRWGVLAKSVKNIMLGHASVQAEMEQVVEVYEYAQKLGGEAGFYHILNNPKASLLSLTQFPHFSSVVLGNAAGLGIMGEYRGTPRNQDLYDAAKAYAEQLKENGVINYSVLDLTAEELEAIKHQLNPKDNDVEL

[4] = biological target: T2, RSV N-RNA complex (full-length N …); experiment: fluorescence polarisation; 200 nM FTU-labelled Fn peptide, N-RNA varied (up to 40 µM N); 20 mM Tris pH 8.0 without salt, 0.01% Brij-35; 20 °C; 30 min incubation; single site model, or with a linear contribution where marked (*); details: both partners purified
[5] = biological target: T2, RSV N-RNA complex (full-length N …); experiment: fluorescence polarisation; 200 nM dicyano BODIPY FL-labelled BCNn peptide, N-RNA varied; 20 mM Tris pH 8.0 with 100 mM NaCl, 0.01% Brij-35; 20 °C; single site model; details: both partners purified
[6] = biological target: T2, RSV N-RNA complex (full-length N …); experiment: fluorescence polarisation; 200 nM dicyano BODIPY FL-labelled BCNn peptide, N-RNA varied; 20 mM Tris pH 8.0 without salt, 0.01% Brij-35; 20 °C; single site model; details: both partners purified
[7] = biological target: T2, RSV N-RNA complex (full-length N …); experiment: fluorescence polarisation; competition: unlabeled P peptide varied against 200 nM F11 on 10 µM N-RNA; Tris pH 8 without salt; Hill equation; Ki from the IC50-to-Ki server; details: both partners purified
[8] = BCNn peptides 200 nM, Tris pH 8.0, no salt, single site model

With `Cc1cc(C)n2c1C=C1C=CC(CCC(=O)N[C@@H](CC(N)=O)C(=O)N[C@@H](CC(=O)O)C(=O)N[C@@H](CC(C)C)C(=O)N[C@@H](CCC(=O)O)C(=O)N[C@@H](CC(C)C)C(=O)N[C@@H](CCC(=O)O)C(=O)N[C@@H](CC(=O)O)C(=O)N[C@@H](Cc3ccccc3)C(=O)O)=[N+]1[B-]2(C#N)C#N` [BCN8E] (X1-NDLELEDF-OH) the “decrease of affinity in salty buffer versus salt-free buffer” value (RSV N-RNA complex [1]; 100 mM NaCl vs no salt, Tris pH 8) was 5 fold, the Kd (RSV N-RNA complex [1]; [8]) was 1400 nM and the ΔFPmax (RSV N-RNA complex [1]; [8]) was 298 ± 5 mFP. The ΔFPmax (RSV N-RNA complex [1]; BCNn peptides 200 nM, Tris pH 8.0, with salt (100 mM NaCl), (*) saturation not reached) was 284 ± 15 (*) mFP, the “Fitted FPmax” value (RSV N-RNA complex [2]; inhibitor M76, [N-RNA] 2 µM) was 166 mFP and the “Fitted FPmax” value (RSV N-RNA complex [2]; inhibitor M76, [N-RNA] 5 µM) was 196 mFP.

B1: P_(10EE) (unlabeled RSV P 10-mer, Ser232Glu/Ser237Glu) (peptide)
peptide: EDNDLELEDF
notes: unlabeled equivalent of BCN_(10EE), which was made from P_(10EE) on resin; C-terminal 10 residues of RSV phosphoprotein P; source: synthetic peptide
With B1 the IC50 [3] was 21 ± 4 µM and the Ki [3] was 2900 nM.

B2: F5E (FTU-labelled RSV P 5-mer, Ser237Glu) (peptide)
peptide: {FITC}-ELEDF
notes: C-terminal 5 residues of RSV phosphoprotein P with a phosphomimetic glutamate at 237; source: synthetic peptide (Fmoc/tBu solid phase), FITC coupled in solution, HPLC purified
Molecule B2 has a Kd [4] of 5.9 ± 0.5 µM.

B3: BCN_(11SE) (dicyano BODIPY FL-labelled RSV P 11-mer, Ser237Glu) (peptide)
peptide: {dicyano BODIPY FL}-DSDNDLELEDF
notes: C-terminal 11 residues of RSV phosphoprotein P with a phosphomimetic glutamate at 237; source: synthetic peptide (Fmoc/tBu solid phase, dicyano BODIPY FL coupled on resin, RP-HPLC purified)
B3 gave a Kd [5] of 550 ± 70 nM and a Kd [6] of 820 ± 220 nM.

B4: BCN9E (dicyano BODIPY FL-labelled RSV P 9-mer, Ser237Glu) (peptide)
peptide: {dicyano BODIPY FL}-DNDLELEDF
notes: C-terminal 9 residues of RSV phosphoprotein P with a phosphomimetic glutamate at 237; also called B9E; source: synthetic peptide (Fmoc/tBu solid phase, dicyano BODIPY FL coupled on resin, RP-HPLC purified)
With B4 the Kd [6] was 960 ± 130 nM.

B5: F_(11SE) (FTU-labelled RSV P 11-mer, Ser237Glu) (peptide)
peptide: {FITC}-DSDNDLELEDF
notes: C-terminal 11 residues of RSV phosphoprotein P with a phosphomimetic glutamate at 237; source: synthetic peptide (Fmoc/tBu solid phase), FITC coupled in solution, HPLC purified
Molecule B5 has a Kd [4] of 0.87 ± 0.26 µM.

B6: P_(11EE) (unlabeled RSV P 11-mer, Ser232Glu/Ser237Glu) (peptide)
peptide: DEDNDLELEDF
notes: unlabeled peptide from which F_(11EE) was made; C-terminal 11 residues of RSV phosphoprotein P; source: synthetic peptide (Fmoc/tBu solid phase, RP-HPLC purified)
For B6, the IC50 [7] was 22 ± 4 µM and the Ki [7] was 6 µM.
